Article PMC5430844, “RRM domain of ALS/FTD-causing FUS characteristic of irreversible unfolding spontaneously self-assembles into amyloid fibrils” (Scientific Reports, 2017)

B1: FUS N-terminal low-sequence complexity (LC) domain (1–267) (domain or fragment, human, UniProt P35637 1-267, looked up)
chain: MASNDYTQQATQSYGAYPTQPGQGYSQQSSQPYGQQSYSGYSQSTDTSGYGQSSYSSYGQSQNTGYGTQSTPQGYGSTGGYGSSQSSQSSYGQQSSYPGYGQQPAPSSTSGSYGSSSQSSSYGQPQSGSYSQQPSYGGQQQSYGQQQSYNPPQGYGQQNQYNSSSGGGGGGGGGGNYGQDQSSMSSGGGSGGGYGNQDQSGGGGSGGYGQQDRGGRGRGGSGGGGGGGGGGYNRSSGGYEPRGRGGGRGGRGGMGGSDRGGFNKFGG
notes: Fused in Sarcoma/Translocated in Sarcoma (FUS), 526 residues, N-terminal LC domain, residues 1-267 (QGSY-rich prion-like region 1–165 and G-rich region 166–267); Cloned by PCR from FUS cDNA into a modified pET28a; also called N-terminal LC domain; FUS (1–267)
B2: FUS RRM domain (282–371) (domain or fragment, human, UniProt P35637 282-371, looked up)
chain: SDNNTIFVQGLGENVTIESVADYFKQIGIIKTNKKTGQPMINLYTDRETGKLKGEATVSFDDPPSAKAAIDWFDGKEFSGNPIKVSFATR
notes: Fused in Sarcoma/Translocated in Sarcoma (FUS), 526 residues, RNA-recognition motif, residues 282-371 (N-terminal residue Ser282); Cloned by PCR from FUS cDNA into a modified pET28a; The introduction gives the RRM as 285–371, but the construct used is 282–371; also called FUS (282–371); RNA-recognition motif

What was measured:
[1] = target: the molecule itself; assay: 1D 1H NMR line broadening and intensity loss; N-terminal LC domain alone, 40 µM, 25 °C, 1 mM phosphate buffer, pH 6.8 compared with pH 5.0; non-exchangeable protons over −0.4–1.8 ppm
[2] = target: the molecule itself; assay: time-lapsed intrinsic UV and visible fluorescence, ThT-binding fluorescence, far-UV CD and negative-stain EM of an incubated sample; RRM alone, 40 µM in 1 mM phosphate buffer pH 6.8, incubated at 25 °C up to 12 days; EM at 3, 6 and 10 days; monomer to amyloid fibrils

Protein | binding result [1] | binding result [2]
B1 | binds | 
B2 |  | binds
